In article doi:10.1101/2025.02.19.639050 (bioRxiv, 2025):
Where a chain is given by its changes, count along the chain named. Values belong to the binder of their own block, whether it stands above or below them.

Legend:
Oncostatin M = biological target: T1, Oncostatin M (Homo sapiens, UniProt P13725); experiment: SPR; Biacore 8K+; antibody captured on a Protein A chip, antigen injected (typically 0.16, 0.8, 4, 20 and 100 nM; 180 s association, 600 s dissociation, 30 µl/min); HBS-EP buffer pH 7.4, 0.15 M NaCl; single cycle or multi cycle kinetics; 1:1 binding model; details: both partners purified
T1 construct: Oncostatin M (OSM), the antigen injected in SPR; also called OSM

[1] = biological target: T2, Human epidermal growth factor receptor 2 (Homo sapiens, UniProt P04626); experiment: as above; details: both partners purified
T2 construct: ERBB2), the antigen injected in SPR; also called HER2; ERBB2

T1 sequence (P13725 26-221): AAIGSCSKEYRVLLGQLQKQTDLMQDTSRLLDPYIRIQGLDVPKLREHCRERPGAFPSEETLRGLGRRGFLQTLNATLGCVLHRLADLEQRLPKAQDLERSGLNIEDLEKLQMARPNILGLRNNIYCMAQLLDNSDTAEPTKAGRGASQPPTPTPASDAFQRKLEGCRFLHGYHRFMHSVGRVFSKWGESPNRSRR

B2: design 9N7O (antibody, V domains shown)
VH: EVQLVESGGGLVQPGGSLRLSCAASGFTFTIYSMNWVRQAPGKGLEWISYISSGSNTIYYADSVKGRFTISRDNAKNSLYLQMNSLRDEDTAVYYCARSSLRYFDWLSYFDYWGQGTMVTVSS
VL: EIVLTQSPGTLSLSPGERATLSCRASQSVGSSYLAWYQQRPGQAPRLLIHGASSRATGIPDRFSGSGSGTDFTLTISGLEPEDVAVYYCQQYGSSPLTFGGGTKVEIK
notes: the Fab of this design is deposited as PDB 9N7O (heavy chain); the Fab of this design is deposited as PDB 9N7O (light chain); IgG in SPR; the Fab (CHO) was crystallised; also called design of seed OSM-N021 with S+Y mutations in the stem region of CDRH3; source: Expi293F, transient (GLFs), purified (Protein A)
fold improvement in affinity relative to the seed OSM-N021 (Oncostatin M): ~4.5 fold | ΔpKD relative to the seed OSM-N021 (Oncostatin M): 0.65

B3: design 9N7M (antibody, V domains shown)
VH: B2 VH with T30N, K76E, S100G, Y112I, M118L
VL: B2 VL
notes: the Fab of this design is deposited as PDB 9N7M (heavy chain); the Fab of this design is deposited as PDB 9N7M (light chain); IgG in SPR; the Fab (CHO) was crystallised; also called design of seed OSM-N021 with G+Y mutations in the stem region of CDRH3; source: Expi293F, transient (GLFs), purified (Protein A)
fold improvement in affinity relative to the seed OSM-N021 (Oncostatin M): 3.6 fold | ΔpKD relative to the seed OSM-N021 (Oncostatin M): 0.56

Further lines, results first:

binding result (Oncostatin M): binds
B1: seed OSM-N021 (antibody, V domains shown)
VH: B2 VH with T30N, S53G, G54N, L79V, S100L, Y109A, Y112I
VL: B2 VL
notes: IgG in SPR; the Fab was crystallised; source: Expi293F, transient (GLFs), purified (Protein A)

fold improvement in binding relative to trastuzumab (hu4D5) [1]: > 4 fold | ΔpKD relative to trastuzumab (hu4D5) [1]: 0.688
B4: ERBB2-P00873 (antibody, V domains shown)
VH: VQLVESDGGGLVQQGGSLRLSCAASGFNIKDRYIHWVRQAPGKGLEWVARIYPTNGYTRYADRVKGRFTISADTSKNTAYLQMFSLRAEDTAVYYCSRWGGDGFYAMDYWGQGTLVTVSS
VL: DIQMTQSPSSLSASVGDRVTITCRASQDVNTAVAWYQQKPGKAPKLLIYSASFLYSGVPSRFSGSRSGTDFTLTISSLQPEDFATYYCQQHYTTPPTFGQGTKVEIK
notes: as the heavy chain of m2 (trastuzumab, PDB 1N8Z) with changes; as the light chain of m2 (trastuzumab, PDB 1N8Z); Expressed as IgG; also called design of hu4D5 (5 edits, 1 insertion); source: Expi293F, transient (GLFs), purified (Protein A)
